Assay results taken from publication PMC2657102, “Molecular cloning and characterization of a novel pyrethroid-hydrolyzing esterase originating from the Metagenome” (Microbial Cell Factories, 2008).
“And” between values parts separate entries of the source, which are not always exact repeats. Equal values may be shown once.

Tested on: CC1(C)C(C=C(Cl)Cl)C1C(=O)OCc1cccc(Oc2ccccc2)c1
Test: purified protein
Details: analogous to ρ-nitrophenyl ester assay (50 mM sodium phosphate pH 7.0, 30°C)

Pye3 (pyrethroid-hydrolyzing esterase) (uncultured prokaryote)
Km: 0.10 µM and 0.18 µM
